Consider 1 protein from paper PMC2637360 (Structure (London, England : 1993), 2008).

The data set concerns the molecule itself. The experiment in a line: crystal structure.

B1: N141A HincII (enzyme)
chain: MSFIKPIYQDINSILIGQKVKRPKSGTLSGHAAGEPFEKLVYKFLKENLSDLTFKQYEYLNDLFMKNPAIIGHEARYKLFNSPTLLFLLSRGKAATENWSIENLFEEKQNDTADILLVKDQFYELLDVKRRNISKSAQAPAIISAYKLAQTCAKMIDNKEFDLFDINYLEVDSELNGEDLVCVSTSFAELFKSEPSELYINWAAAMQIQFHVRDLDQGFNGTREEWAKSYLKHFVTQAEQRAISMIDKFVKPFKKYIL
Turning to B1, the “stoichiometry N” value worked out at 2.
